Laboratory results reported in patent US20250197493A1.

Experiments:
[1] = target: cell membrane-expressed human LAG-3 (human) (UniProt P18627); experiment: flow cytometry, SEB-activated human PBMCs, CD4 T cells, percent of cells bound (isotype control)
[2] = target: cell membrane-expressed human LAG-3 (human) (UniProt P18627); experiment: flow cytometry, SEB-activated human PBMCs, CD8 T cells, percent of cells bound (isotype control)
[3] = target: cell membrane-expressed cynomolgus LAG-3 (cynomolgus monkey); experiment: flow cytometry, SEB-activated cynomolgus PBMCs, CD4 T cells, percent of cells bound (isotype control)
[4] = target: cell membrane-expressed cynomolgus LAG-3 (cynomolgus monkey); experiment: flow cytometry, SEB-activated cynomolgus PBMCs, CD8 T cells, percent of cells bound (isotype control)

Chain of cell membrane-expressed human LAG-3 (human) (P18627 23-525 limits assumed): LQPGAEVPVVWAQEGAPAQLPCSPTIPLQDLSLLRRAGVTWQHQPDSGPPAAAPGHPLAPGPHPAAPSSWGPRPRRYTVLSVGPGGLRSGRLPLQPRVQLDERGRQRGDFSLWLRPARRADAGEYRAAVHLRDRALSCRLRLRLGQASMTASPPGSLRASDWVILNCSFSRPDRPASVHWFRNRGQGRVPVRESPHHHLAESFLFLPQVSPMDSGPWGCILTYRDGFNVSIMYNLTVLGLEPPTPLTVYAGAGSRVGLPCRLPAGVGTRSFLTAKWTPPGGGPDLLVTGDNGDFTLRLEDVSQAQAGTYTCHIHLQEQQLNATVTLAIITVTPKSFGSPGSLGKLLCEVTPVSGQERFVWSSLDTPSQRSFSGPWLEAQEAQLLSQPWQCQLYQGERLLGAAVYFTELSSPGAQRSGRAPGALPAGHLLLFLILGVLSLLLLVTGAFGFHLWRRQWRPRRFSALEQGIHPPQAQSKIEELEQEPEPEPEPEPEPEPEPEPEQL

Isotype hG1 (antibody)
EC50 [1]: 0.39 µg/mL | EC50 [2]: 0.676 µg/mL | EC50 [3]: 2450 µg/mL | EC50 [4]: 8.66 µg/mL
